The values below come from publication PMC4265565 (Protein expression and purification, 2012).

The target in the assay is XPB–p62–p44–p34 sub-complex (human, UniProt P19447 1-782; P32780 1-548; Q13888 1-395; Q13889 1-308). Put plainly: SEC.
XPB–p62–p44–p34 sub-complex, sequence (P19447 whole entry, chain 1 of 4): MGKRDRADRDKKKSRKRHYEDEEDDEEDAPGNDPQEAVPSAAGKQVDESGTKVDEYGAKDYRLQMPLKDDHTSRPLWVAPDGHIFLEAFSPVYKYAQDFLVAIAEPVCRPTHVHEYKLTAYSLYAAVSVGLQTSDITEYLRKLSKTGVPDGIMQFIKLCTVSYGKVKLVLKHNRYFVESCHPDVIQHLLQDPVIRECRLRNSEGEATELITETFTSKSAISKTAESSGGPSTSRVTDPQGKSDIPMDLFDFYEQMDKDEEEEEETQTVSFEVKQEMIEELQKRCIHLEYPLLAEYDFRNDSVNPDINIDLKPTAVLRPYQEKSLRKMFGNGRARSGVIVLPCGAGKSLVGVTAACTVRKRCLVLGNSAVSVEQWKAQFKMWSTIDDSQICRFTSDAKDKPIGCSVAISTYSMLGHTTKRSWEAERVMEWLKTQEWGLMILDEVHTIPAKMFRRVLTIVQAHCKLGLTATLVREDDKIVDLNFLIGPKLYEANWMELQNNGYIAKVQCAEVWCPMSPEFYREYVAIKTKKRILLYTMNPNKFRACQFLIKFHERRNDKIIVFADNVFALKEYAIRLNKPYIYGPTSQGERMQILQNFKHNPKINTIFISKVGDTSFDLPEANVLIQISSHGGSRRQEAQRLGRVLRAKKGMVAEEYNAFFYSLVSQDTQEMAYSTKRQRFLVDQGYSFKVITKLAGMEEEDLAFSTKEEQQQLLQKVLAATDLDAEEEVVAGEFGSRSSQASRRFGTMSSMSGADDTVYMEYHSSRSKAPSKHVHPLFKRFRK
XPB–p62–p44–p34 sub-complex, sequence (P32780 whole entry, chain 2 of 4): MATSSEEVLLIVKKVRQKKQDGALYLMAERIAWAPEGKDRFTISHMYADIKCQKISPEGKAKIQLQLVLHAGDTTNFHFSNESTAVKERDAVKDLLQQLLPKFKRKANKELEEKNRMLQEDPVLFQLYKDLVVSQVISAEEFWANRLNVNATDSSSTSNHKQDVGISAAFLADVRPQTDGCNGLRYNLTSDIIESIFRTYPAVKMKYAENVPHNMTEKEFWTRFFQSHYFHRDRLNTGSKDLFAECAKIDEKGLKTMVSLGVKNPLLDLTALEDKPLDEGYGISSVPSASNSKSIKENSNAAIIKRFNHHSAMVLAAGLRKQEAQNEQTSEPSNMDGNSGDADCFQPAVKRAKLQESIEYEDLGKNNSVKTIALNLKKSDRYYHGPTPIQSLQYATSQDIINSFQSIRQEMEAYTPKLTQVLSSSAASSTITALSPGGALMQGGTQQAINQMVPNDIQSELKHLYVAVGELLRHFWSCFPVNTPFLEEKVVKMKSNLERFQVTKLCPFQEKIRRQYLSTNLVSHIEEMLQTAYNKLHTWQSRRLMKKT
XPB–p62–p44–p34 sub-complex, sequence (Q13888 whole entry, chain 3 of 4): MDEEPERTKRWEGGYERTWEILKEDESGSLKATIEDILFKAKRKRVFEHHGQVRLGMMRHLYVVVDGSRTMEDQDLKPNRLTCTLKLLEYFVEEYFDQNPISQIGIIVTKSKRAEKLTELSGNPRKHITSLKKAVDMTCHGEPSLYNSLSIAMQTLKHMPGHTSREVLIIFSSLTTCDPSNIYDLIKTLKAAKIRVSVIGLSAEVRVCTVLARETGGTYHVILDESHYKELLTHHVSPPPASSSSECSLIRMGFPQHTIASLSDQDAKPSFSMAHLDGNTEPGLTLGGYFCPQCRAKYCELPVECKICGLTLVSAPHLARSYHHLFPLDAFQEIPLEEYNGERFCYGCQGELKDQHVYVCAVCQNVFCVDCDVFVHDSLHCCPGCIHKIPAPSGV
XPB–p62–p44–p34 sub-complex, sequence (Q13889 whole entry, chain 4 of 4): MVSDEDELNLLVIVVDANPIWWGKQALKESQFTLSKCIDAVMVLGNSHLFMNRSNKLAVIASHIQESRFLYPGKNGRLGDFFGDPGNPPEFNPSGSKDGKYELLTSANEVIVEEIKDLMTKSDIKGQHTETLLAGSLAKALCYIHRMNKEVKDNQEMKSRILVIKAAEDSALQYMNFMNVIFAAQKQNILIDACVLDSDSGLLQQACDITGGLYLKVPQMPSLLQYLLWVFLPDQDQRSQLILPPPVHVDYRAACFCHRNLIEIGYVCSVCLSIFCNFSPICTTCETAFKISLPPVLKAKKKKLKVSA

B1: GST–p8 (natural protein, human, UniProt Q6ZYL4 1-71, looked up)
chain: MVNVLKGVLIECDPAMKQFLLYLDESNALGKKFIIQDIDDTHVFVIAELVNVLQERVGELMDQNAFSLTQK
On to B1, for which the binding result was “binds”.
